Biological target: T1, LtrA (L1.LtrB group II intron-encoded protein) (Lactococcus lactis) (UniProt P0A3U0)
T1 sequence: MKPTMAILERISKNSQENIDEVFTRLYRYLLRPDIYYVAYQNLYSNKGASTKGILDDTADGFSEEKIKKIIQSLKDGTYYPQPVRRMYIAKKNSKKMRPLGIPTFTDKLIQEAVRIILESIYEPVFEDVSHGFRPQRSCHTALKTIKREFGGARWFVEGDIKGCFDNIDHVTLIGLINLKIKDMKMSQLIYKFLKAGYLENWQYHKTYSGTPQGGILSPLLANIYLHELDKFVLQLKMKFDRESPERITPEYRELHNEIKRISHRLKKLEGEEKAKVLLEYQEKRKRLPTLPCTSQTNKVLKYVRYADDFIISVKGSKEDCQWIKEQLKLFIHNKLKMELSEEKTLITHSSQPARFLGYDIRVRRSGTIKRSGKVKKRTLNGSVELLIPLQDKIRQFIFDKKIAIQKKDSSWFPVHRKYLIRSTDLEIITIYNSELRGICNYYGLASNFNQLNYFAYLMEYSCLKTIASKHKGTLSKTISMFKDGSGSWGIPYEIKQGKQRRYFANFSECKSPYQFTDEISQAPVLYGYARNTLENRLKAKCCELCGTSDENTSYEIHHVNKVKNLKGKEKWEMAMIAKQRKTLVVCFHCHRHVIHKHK
Experiment: cell_activity
Details: for binding signal (mutability value): doped target pool selection; for activity: after IPTG induction

Substance: L1.LtrB deltaORF intron RNA ; L1.LtrB target C-7A
- binding signal (mutability value) ([24 (-7 C>A)], preferred over wild type): 3.83

Substance: L1.LtrB deltaORF intron RNA ; L1.LtrB target G-21A
- binding signal (mutability value) ([10 (-21 G>A)]): -0.6

Substance: L1.LtrB deltaORF intron RNA ; L1.LtrB target G-21C
- binding signal (mutability value) ([10 (-21 G>C)]): -0.9

Substance: retargeted L1.LtrB intron HIV1-4021s ; HIV-1 proviral target 4021s
- activity: > 60 % mobility

Substance: L1.LtrB deltaORF intron RNA ; L1.LtrB target G-21T
- binding signal (mutability value) ([10 (-21 G>T)], absent from active sites): -1

Substance: retargeted L1.LtrB intron HIV1-4069s ; HIV-1 pol target 4069s
- activity (also inserted in human cells (p89)): > 60 % mobility

Substance: L1.LtrB deltaORF intron RNA ; L1.LtrB DNA target -30 to +15
- activity (% TetR colonies) (100 uM IPTG, ~70% without IPTG): 100

Source: US20030104352
